Test results as given in paper PMC5877544, “D181A Site-Mutagenesis Enhances Both the Hydrolyzing and Transfructosylating Activities of BmSUC1, a Novel β-Fructofuranosidase in the Silkworm Bombyx mori” (International Journal of Molecular Sciences, 2018).
Changes are numbered by the printed parent chain. Numbers in names are those of the source.

Assays:
[1] = substrate: OC[C@H]1O[C@@](CO)(O[C@H]2O[C@H](CO)[C@@H](O)[C@H](O)[C@H]2O)[C@@H](O)[C@@H]1O; test: purified protein; type: biochemical, Bombyx mori; conditions: 10 mM Britton-Robinson buffer pH 7.0, 30 °C (standard assay), 2 μg protein, sucrose 40-280 mM
[2] = substrate: OC[C@H]1O[C@H](OC[C@H]2O[C@H](O[C@]3(CO)O[C@H](CO)[C@@H](O)[C@@H]3O)[C@H](O)[C@@H](O)[C@@H]2O)[C@H](O)[C@@H](O)[C@H]1O; test: purified protein; type: biochemical, Bombyx mori; conditions: 10 mM Britton-Robinson buffer pH 7.0, 30 °C (standard assay), 2 μg protein, raffinose 10-70 mM

B1: BmSUC1 (wtBmSUC1) (Bombyx mori) (protein)
chain: LRQQNETTKRELEEYIADKKAEINPRYRPHYHISPPVGWMNDPNGFSYYKEKFHLFYQFYPYDSVWGPMHWGHVSSSNLIDWEHLPTALIPETEMCFSGGAVVHGDDLVLLYTGRVTTDTDPFYNETQYLAFSNDGVNFRKYEGNPVLSYVPDNSADFRDPKIWKFKDHWYVVIGSSSNKRGRVLLYRSGDLFNWEFLSVLGESDGDMGYMWECPDLFELGGKTIFLWSPQGLEPKGDRYKNTYQTGYYIGELDYETFEFKTDKYFQELDYGHDFYATQTIQGDGKTYLIGWFNMWEVPHLEKEDGWAGTTTLVRELQLIGTRITMNPLEGIQDLRTDSVHNGDLEPQQAIEFGPTAEIILQGCLDQKIELLIQGKEGGLVTTVTWDPEVGKVIVNRSGEVRQVEWVPIGKTSWRLFLDASSLELFCGEGEVVFSSRIFSDGDWVVKNSSPQTLSVEAYRLRRSVPA
notes: full coding region (488 aa, about 56 kDa), C-terminal 6xHis tag kept; expressed in BmN cells by Bac-to-Bac/BmNPV, secreted (N-terminal signal peptide), Ni-NTA purified from culture medium
Km [1]: 88.32 ± 11.75 mM | kcat [1]: 0.022 ± 0.0009 s⁻¹ | kcat/Km [1]: 0.249 M⁻¹ s⁻¹ | Km [2]: 52.32 ± 17.22 mM | kcat [2]: 0.025 ± 0.0028 s⁻¹ | kcat/Km [2]: 0.291 M⁻¹ s⁻¹

B2: BmSUC1 (wtBmSUC1) (Bombyx mori; D181A) (protein)
chain: B1 chain with D160A
notes: as for B1
Km [1]: 52.87 ± 6.85 mM | kcat [1]: 0.025 ± 0.0004 s⁻¹ | kcat/Km [1]: 0.473 M⁻¹ s⁻¹ | Km [2]: 32.03 ± 4.43 mM | kcat [2]: 0.021 ± 0.0014 s⁻¹ | kcat/Km [2]: 0.656 M⁻¹ s⁻¹
